Reference: US20240317847A1 (Bayer, published 2024)
Where “and” joins values, the source holds several entries; their conditions need not be identical. Identical values can stand only once.

T1: murine IL-11 (mouse, UniProt P47873 22-199)
T1 sequence: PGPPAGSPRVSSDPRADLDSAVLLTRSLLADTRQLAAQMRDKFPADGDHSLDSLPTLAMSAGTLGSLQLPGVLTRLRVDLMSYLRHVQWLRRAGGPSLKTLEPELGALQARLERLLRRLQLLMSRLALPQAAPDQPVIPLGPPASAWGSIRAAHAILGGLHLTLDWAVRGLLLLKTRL

T2: human IL-11 (human, UniProt P20809 22-199)
T2 sequence: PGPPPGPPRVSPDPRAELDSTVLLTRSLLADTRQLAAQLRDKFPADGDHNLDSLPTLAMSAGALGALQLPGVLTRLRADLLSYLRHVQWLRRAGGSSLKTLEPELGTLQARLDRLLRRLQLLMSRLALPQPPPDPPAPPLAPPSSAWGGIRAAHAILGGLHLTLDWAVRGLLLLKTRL

T3: murine IL-11 (mouse, UniProt P47873 22-199)
T3 sequence: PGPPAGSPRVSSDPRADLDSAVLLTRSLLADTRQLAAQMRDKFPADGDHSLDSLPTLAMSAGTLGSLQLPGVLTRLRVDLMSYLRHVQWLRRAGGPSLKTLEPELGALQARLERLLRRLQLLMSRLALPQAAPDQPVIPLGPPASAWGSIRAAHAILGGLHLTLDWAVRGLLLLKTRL

T4: human IL-11 (human, UniProt P20809 22-199)
T4 sequence: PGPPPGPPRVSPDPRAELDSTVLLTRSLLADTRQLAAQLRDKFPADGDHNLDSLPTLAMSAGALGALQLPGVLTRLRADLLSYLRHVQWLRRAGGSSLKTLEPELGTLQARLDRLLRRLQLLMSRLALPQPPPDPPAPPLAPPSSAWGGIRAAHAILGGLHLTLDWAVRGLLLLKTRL


Assays:
Assay in all cases: cell-based or functional assay
murine IL-11 [1] = target: T1, murine IL-11
human IL-11 [2] = target: T2, human IL-11
murine IL-11 [3] = target: T3, murine IL-11; remark: listed apart in the source
human IL-11 [4] = target: T4, human IL-11; remark: listed apart in the source

Binder	IC50, RGA 1 (murine IL-11 [1])	IC50, RGA 2 (murine IL-11 [1])	IC50, RGA 1 (human IL-11 [2])	IC50, RGA 2 (human IL-11 [2])	RGA Efficacy (%) (murine IL-11 [3])	RGA IC50 (murine IL-11 [3])	RGA Efficacy (%) (human IL-11 [4])	RGA IC50 (human IL-11 [4])
TPP-31301 (antibody, IgG4, V domains shown) VH: EVQLLESGGGLVQPGGSLRLSCAASGFTFSHYDMNWLRQAPGKGLEWVGVISYEGSNKFYADFVKGRFTISRDNSKNTLYLQMNSLRAEDTAVYYCARTPGSHFDYWGQGTLVTVSS VL: QSVLTQPPSASGTPGQRVTISCSGSSSNIGNNAVNWYQQLPGTAPKLLIYYDDLLPSGVPDRFSGSKSGTSASLAISGLRSEDEADYYCSAWDDSLQGVVFGGGTKLTVL	4.43 nM	1.77 nM	18.9 nM	9.71 nM				
TPP-31297 (antibody, IgG4, V domains shown) VH: EVQLLESGGGLVQPGGSLRLSCAASGFTFSHYDMNWLRQAPGKGLEWVGVISYDGSNKFYADFVKGRFTISRDNSKNTLYLQMNSLRAEDTAVYYCARTPGSHFDYWGQGTLVTVSS VL: QSVLTQPPSASGTPGQRVTISCSGSSSNIGNNAVNWYQQLPGTAPKLLIYYDDLLPSGVPDRFSGSKSGTSASLAISGLRSEDEADYYCSAWDDSLQGVVFGGGTKLTVL	37 nM	7.93 nM	181 nM	22 nM				
TPP-31302 (antibody, IgG4, V domains shown) VH: EVQLLESGGGLVQPGGSLRLSCAASGFTFSHYDMNWLRQAPGKGLEWVGVISYEGSNKFYADFVKGRFTISRDNSKNTLYLQMNSLRAEDTAVYYCARTPGSHFDYWGQGTLVTVSS VL: QSVLTQPPSASGTPGQRVTISCSGSSSNIGNNAVNWYQQLPGTAPKLLIYYDDLLPSGVPDRFSGSKSGTSASLAISGLRSEDEADYYCSAWDDSLSGVVFGGGTKLTVL	3.49 nM	1.17 nM	14.5 nM	7.13 nM				
TPP-31307 (antibody, IgG4, V domains shown) VH: EVQLLESGGGLVQPGGSLRLSCAASGFTFSHYDMNWLRQAPGKGLEWVGVISYDASNKFYADFVKGRFTISRDNSKNTLYLQMNSLRAEDTAVYYCARTPGSHFDYWGQGTLVTVSS VL: QSVLTQPPSASGTPGQRVTISCSGSSSNIGNNAVNWYQQLPGTAPKLLIYYDDLLPSGVPDRFSGSKSGTSASLAISGLRSEDEADYYCSAWDDSLNAVVFGGGTKLTVL	45 nM	37 nM	> 500 nM	126 nM				
TPP-31305 (antibody, IgG4, V domains shown) VH: EVQLLESGGGLVQPGGSLRLSCAASGFTFSHYDMNWLRQAPGKGLEWVGVISYDASNKFYADFVKGRFTISRDNSKNTLYLQMNSLRAEDTAVYYCARTPGSHFDYWGQGTLVTVSS VL: QSVLTQPPSASGTPGQRVTISCSGSSSNIGNNAVNWYQQLPGTAPKLLIYYDDLLPSGVPDRFSGSKSGTSASLAISGLRSEDEADYYCSAWDDSLQGVVFGGGTKLTVL	30 nM	29 nM	182 nM	47 nM				
TPP-18087 (antibody, mouse IgG1, V domains shown) VH: EVQLLESGGGLVQPGGSLRLSCAASGFTFSHYDMNWLRQAPGKGLEWVGVISYDGSNKFYADFVKGRFTISRDNSKNTLYLQMNSLRAEDTAVYYCARTPGSHFDYWGQGTLVTVSS VL: QSVLTQPPSASGTPGQRVTISCSGSSSNIGNNAVNWYQQLPGTAPKLLIYYDDLLPSGVPDRFSGSKSGTSASLAISGLRSEDEADYYCSAWDDSLNGVVFGGGTKLTVLG	204 nM and 231 nM	21 nM	111 nM and 93 nM	12 nM				
TPP-26290 (antibody, V domains shown) VH: EVQLLESGGGLVQPGGSLRLSCAASGFTFSSYGMHWVRQAPGKGLEWVSVISYDGSYKYYADSVKGRFTISRDNSKNTLYLQMNSLRAEDTAVYYCAAGVPDYWGQGTLVTVSS VL: QSVLTQPPSASGTPGQRVTISCTGSSSNIGAGMDVHWYQQLPGTAPKLLIYSNNERPSGVPDRFSGSKSGTSASLAISGLRSEDEADYYCAAWDDSLNGPVFGGGTKLTVL					95.1%	0.97 nM	75.9%	4.7 nM
TPP-26312 (antibody, V domains shown) VH: EVQLLESGGGLVQPGGSLRLSCAASGFTFSSYGMHWVRQAPGKGLEWVSVISYDGSYKYYADSVKGRFTISRDNSKNTLYLQMNSLRAEDTAVYYCAAGVPDYWGQGTLVTVSS VL: QSVLTQPPSASGTPGQRVTISCTGSSSNIGAGLDVHWYQQLPGTAPKLLIYSNNERPSGVPDRFSGSKSGTSASLAISGLRSEDEADYYCAAWDDSLNGPVFGGGTKLTVL					87.3%	1.2 nM	68.6%	3.8 nM
TPP-26301 (antibody, V domains shown) VH: EVQLLESGGGLVQPGGSLRLSCAASGFTFSSYGMHWVRQAPGKGLEWVSVISYDGSYKYYADSVKGRFTISRDNSKNTLYLQMNSLRAEDTAVYYCAAGVPDYWGQGTLVTVSS VL: QSVLTQPPSASGTPGQRVTISCTGSSSNIGADYDVHWYQQLPGTAPKLLIYSNNERPSGVPDRFSGSKSGTSASLAISGLRSEDEADYYCAAWDDSLNGPVFGGGTKLTVL					91.8%	1.5 nM	76.1%	2.6 nM
